From paper PMC8377056 (2021)

Biological target: Fc(A680)-VH4127 conjugate (human, UniProt P01857 = IgG part, Alexa Fluor 680 (degree of labelling 1.7); H-PEG6-VH4127-NH2 joined enzymatically by microbial transglutaminase to the C-terminus of the Myc-tagged Fc | non-natural amino acid residues (not given); …)
Assay: SPR

B1: His-tagged recombinant mouse LDLR (receptor)
chain: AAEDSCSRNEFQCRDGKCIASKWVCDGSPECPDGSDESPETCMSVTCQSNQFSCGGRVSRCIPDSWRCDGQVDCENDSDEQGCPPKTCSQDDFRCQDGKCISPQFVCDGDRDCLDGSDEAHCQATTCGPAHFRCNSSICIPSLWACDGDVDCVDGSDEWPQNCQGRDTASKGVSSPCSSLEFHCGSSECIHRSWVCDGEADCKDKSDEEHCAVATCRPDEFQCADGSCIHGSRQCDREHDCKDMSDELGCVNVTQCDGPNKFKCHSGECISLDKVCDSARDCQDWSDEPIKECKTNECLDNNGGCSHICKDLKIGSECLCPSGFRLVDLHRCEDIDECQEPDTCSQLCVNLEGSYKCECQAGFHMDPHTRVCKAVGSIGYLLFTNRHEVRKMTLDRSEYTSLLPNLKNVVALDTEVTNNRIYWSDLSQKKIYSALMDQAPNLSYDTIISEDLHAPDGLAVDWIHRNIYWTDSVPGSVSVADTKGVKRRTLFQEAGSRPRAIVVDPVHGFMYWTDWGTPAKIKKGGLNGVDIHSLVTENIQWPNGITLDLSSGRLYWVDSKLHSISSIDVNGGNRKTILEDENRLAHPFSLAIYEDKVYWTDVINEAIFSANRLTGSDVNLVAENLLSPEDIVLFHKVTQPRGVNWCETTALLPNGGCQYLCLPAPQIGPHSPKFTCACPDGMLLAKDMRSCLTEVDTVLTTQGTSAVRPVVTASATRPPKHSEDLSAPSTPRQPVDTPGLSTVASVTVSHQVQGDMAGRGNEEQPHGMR
koff: 0.000236 s⁻¹
